assay: yeast display, Sf9 membrane polyspecificity reagent, FACS + sequencing; frameworks hold sequencing errors
Procedure, shortened: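 A synthetic nanobody library was expressed on Saccharomyces cerevisiae BJ5465 by galactose induction for 36–48 hours. The library was stained for 1 hour at 4 °C with 10% biotinylated, detergent-solubilized Sf9 membrane reagent and enriched with streptavidin microbeads before FACS. Low and high (top ~1%) gates were set on anti-HA fluorescence for expression and streptavidin fluorescence for reagent binding, and each polyreactivity label reflects the gate of origin.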

Sequence | polyreactivity (PSR sort gate)
QVHLVESGGGLVQAGGSLRLSCAASGSTFYANAMGWYRQAPGKDRELVAVIRWSGGSTYYADSVKGRFTISRDNAKNTDYFQINSLKPEDTAVYYCNADFYRVAYLRRYSHFDYWGQGTQVTVSS | high polyreactivity
QVHLVESGGGLVQAGGSLRLSCAASGSTFYIYAKGWYRQAPGKERELVAAIDWTGSTYYADSVKGRFTISRDNAKNTVYLQMNSLKPEDPAVYDCAAYYDLEDDSYRLNSWGQGTQVTVSS | high polyreactivity
QVHLVESGGGLVQAGGSLRLSCAASGSTFYPYSMGWYRQAPGKERELVAAISSGGSTSYADSVKGRFTISRDNAKNTVYLQMNSLKPDDTAVYYCAALYRIFSYDYWGQGTQVTVSS | low polyreactivity
QVHLVESGGGLVQAGGSLRLSCAASGSTIRYYAMGWYRQAPGKERELVAAITKSGGSTYYADSVKGRFTISRDNAKNTVYLQMNSLKPEDTAVYYCAAFRRWYYPALSEHDYWGQGTQGTVSS | low polyreactivity
QVHLVESGGGLVQAGGSLRLSCAASGSTIVRYGMGWYRQAPGKERELVAAITSTGDSTYYADSVKGRFTISRDNAKNTVYLQMNSLKPEDTAVYYCATQSSVLSWWYDYWGQGTEVTVSS | low polyreactivity
QVHLVESGGGLVQAGGSLRLSCAASGSTSAYYVMGWYRQAPGKERELVAAIDFSGDSTYYADSVKGRFTISRDNAKNTVYLQMNSLKPEDTAVYYCAAELFYYSSLVTYEYWGQGTQVTVSS | high polyreactivity
QVHLVESGGGLVQAGGSLRLSCAASGTIFGEYAMGWYRQAPGKERELVARISVSGTGTYYADSVKGRFTISRVNAKNTVYLQMNSLKPEDTAVYYSATRLYTIRWGGVSYDYDYWGQGTQVTVSS | high polyreactivity
QVHLVESGGGLVQAGGSLRLSCAASGTTFGDYAMGWYRQAPGKERELVAAISLSAGSTYYADSVKGRFTISRDNAKNTVYLQMNSLKPEDTAVYYCAAEYQYHWAYIYYYWGQGTQVTLSS | high polyreactivity
QVHLVESGGGLVQAGGSLRLSCAASGVIFSSYAMGWYRQAPGKERELVAAISTGDGSTTYADSVKGRFTISRDNAKNTVYLQMNSLIPEDTAVYYCNVKYRSSYRTDFDYWGQGTQVTVSS | low polyreactivity
QVHLVESGGGLVQAGGSLRLSCAASGYIFRRYAMGWYRQAPGKERELVAAISFSGGSTYYADSVKGRFTISRDNAKNSVYIQMNSLKPDDTAVYYCAGLSLLRYDYWGQGTQVTVSS | high polyreactivity
QVHLVESGGGLVQAGGSLRLSCAASGYTFGYYTMGWYRQAPGKERELFASIDSGGGTNYADSVKGRFTISRDNAKNTVFLQMNSLKPEETAVYYCAVDSYQTGVYFYYVYWDFDLGYWGQVTQVTVSS | low polyreactivity
QVHLVESGGGLVQAGGSLRLSCAASGYTFRYYAMGWYRQAPGKERELVAAINWSGGSTYYADSVKGRFTISRDNAKNTVYLQMNSLTPEDTAVYYCAADPDGDLDIDYDYWGQGTQVTVSS | low polyreactivity
QVHLVESGGGLVQAGGSLRLSCAASRGIFHYYAMGWYRQAPGNERELVAAISWNTGSTYYADSVKGRFTISRDNAKNTVYLQMNSLKPEDTAVYYCAASYRSPWMRYDYWGQGTQVTVSS | high polyreactivity
QVHLVESGGGLVQAGGSLRLSCAATGRIFVPYVMGWYRQAPGKERELVASISDSDTSTYYADSVKGRFTISRDNAKNTVYLQMNSLKPEDNAVYYCNVDYWGQGTQVTVSS | low polyreactivity
QVHLVESGGGLVQAGGSLRLSCAATGSIFDQNAMGWYRQAHGKVRELVAAITRGGSTKYADSVKGRFTISRDNAKNTVYLQMNSLKPEDTAVYYCARTARRRYQPYEYWGQGTQVTVSS | low polyreactivity
QVHLVESGGGLVQAGGSLRLSCAATGSTFPNAMGWYRQAPGKERELVAAITYGGGSTYYADSVKGRFTISRDNAKNTVYLQMNSLIPEDTAVYYCNAPSRLSTIFYSGYDYWGQGTQVTVSS | low polyreactivity
QVHLVESGGGLVQAGGSLRLSCAATGSTFRYNAMGWYRQAPGKERELVAAISWRGGSTYYADSVKGRFTISRDNAKNTVYLQMNSLKPEDTAVYYCAADRYPSTTYPLSDYNYWGQGTQVTVSS | high polyreactivity
QVHLVESGGGLVQAGGSLRLSCAATGYIFDSYAMGWYRPAPGKEREFVAAISGSDGSTYYADSVKGRFTISRDNAKNTVYLQMNSLKPEDTAVYYCAADPYYGEMEYWGQGTQVTVSS | low polyreactivity
QVHLVESGGGLVQAGGSLRLSCADSGFIFWSYVMGWNRQAPGKESELVAAIDYSGASTYYADSVKGRFTISRDNAKNTVSLQMNSLKPEDTAVYYCNAVAYYPYGYDYWGQGTQVTVSS | low polyreactivity
QVHLVESGGGLVQAGGSLRLSCADSGRTFGTYAMGWYRQAPGKERELVAAISSGGSTYADSVKGRFTISRDNAKNTVYLQMNSLKPVDTAVYYCNADFSARNYHYYPRRFKYYYWGQGTQVTVSS | high polyreactivity
QVHLVESGGGLVQAGGSLRLSCDASGFTFYWYAMGWYRQPPGKERELVAAISNRGGSKYYADSVKGRFTISRDNAKNTVYLQMNSLKPEDTAVYYCGAEWYGRMYYWGQGTQVTVSS | high polyreactivity
QVHLVESGGGLVQAGGSLRLSCDASGSIFTYYAIGWYRPAPGKERELVAAITNGVDSTYYADSVKGRFTISRDNAKNTVYLQINSLKPEDTAVYYCNADTVVEWFSPSREYDYWGQGTQVTVSS | low polyreactivity

Sequence | polyreactivity (PSR sort gate)
QVHLVESGGGLVQAGGSLRLSFAASGRIFYYNAMGWYRQAHGKERELVAAIRGGCSTNYADSVKGRFTISRDNAKNTVYLQMNSLKPEDTAVYYCNTAVWGPHRYDYWGQGTQVTVSS | low polyreactivity
QVHLVESGGGLVQAGGSLRLSGAASGSISGLYAMGCYRQAPGKEREFVARIRWRGDSTYYADSVKGRFTISRDNAKNTVYLQMNSLKPEDTAVYYCAAGLYLFQIWFVNEYDYWGQGTQVTVSS | high polyreactivity
QVHLVESGGGLVQAGGSLRLSSAASGNIFESYALGWYRQAPGKERELVAAISGSGDSTNYADSVKGRFTISRDNAKNSVYLQMNSLKPEDTAVYYCAARPEVRHQYRRYDYWGQGTQVTVSS | low polyreactivity
QVHLVESGGGLVQAGGSLRLSSAASGRTFTAYTMGSYRQAPGKEREMVASISSGVTYADSVKGRFTISRDNAKNTVYLQMNSLKTVDTAVYYCAARLWYVQGYVPYVHHRFDYWGQGTQVTVSS | low polyreactivity
QVHLVESGGGLVQAGGSLRLSSAASGSIFIIYAMGWYRQAPGKERELVADITCRGGDTYYADSVKGRFTISRDNAKNTVYLQMNSLKPEDTAVYYCAARAGYPYTVQDVGVSAYDYWGQGTQVTVSS | low polyreactivity
QVHLVESGGGLVQAGGSLRLTCAASGFIFEYNAMGCYRQAPGKEREFVAAITSSGGSTYYADSVIGRFTISRDNAKNTVYLQMNSLKPEDTAVYYCARVRRSAYYKDYYYWGQGTQVTVSS | high polyreactivity
QVHLVESGGGLVQAGGSLRLTCAASGRIFAHYAMGWYRQAPGKERELVAAISSGGSTYYADSVKGRFTISRDNAKNTVYLQMNSVKPEDTAVYYCNKRPVRRKYDYWGQGTQVTVSS | low polyreactivity
QVHLVESGGGLVQAGGSLRLTCAASGRIFSSYAMGWYRQAPGKVRELVPAITRGGSTYYADSVKGRFTISRDNAKYTVYLQMNSLKPEDTGVYYCAGRQPYRYWFWGNEDFWGQGSQVTVSS | high polyreactivity
QVHLVESGGGLVQAGGSLRLTCAASGRILWSYAMGWYRQAPGKERELVAAITSGTRTNYADSVKGRFTISRDNAKNTVYLQMNSVKPEDTAVFSCNAVSLRYRFDYWGQGTQLTVSS | high polyreactivity
QVHLVESGGGLVQAGGSLRLTCAASGRTFGRYAMGWYRQAPGKERELVAAIRYTGGSTYADSVKGRFTISRDNAKNTVYLQMNSLKPEDTAVYYCNRGGAFNTRNEITRYGYWGQVTQVTVSS | low polyreactivity
QVHLVESGGGLVQAGGSLRLTCAASGRTFGWNVMGWYRQAPGKERELVAAISGSGGSTYYADSVKGRFTISRDNAKNTVYLQMNSLKPEDTAVYYCAALYGPGREYDYWGQGTQVTVSS | low polyreactivity
QVHLVESGGGLVQAGGSLSLSCDASGRTFYENAMGWYRQAPGKERELVAAISQSSGSTYYADSVKGRFTISRDNAKNTVYLQMNSLKPEDTAVYYCAAVQGANYYNEFDYWGQGTQVTVSS | high polyreactivity
QVHLVESGGGLVQAGGSQRLSCAASGSIFKYYAKAWYRQQPGKERELVATITNGGNTNYADSVYGRFTISRDNPKKTVYLQRNSLKPEDTAVYYCAARLWCKRYSSPTSLQRYDYWRQGTQVTVSS | high polyreactivity
QVHLVESGGGLVQAGGTLRLSCAASGSIFATYGMGSYRQAPGKERELVAAITSSGGSTYYADSVKGRFTISRDHAKNTVYLQMNSLKPEDTAVYYFAADSYIIWYGSVVSYGEDSWGQGTQVTVSS | low polyreactivity
QVHLVESGGGLVQEGGSLPLTCAASGSTLRYYDMGWYRQPPRKERELFAAITTSGDDTYYADSVKRLFTISRDNAKYIVYLQMNSLKPEDTAVYYCAADGYGGHKYELESWGQGTQVTVSS | low polyreactivity
QVHLVESGGGLVQEGGSLRISCAASGSSFSHYTMGWYIQAPGKERELVAAISYRGGSTYYADSLKGRFTISRDNAKNTVYFQSNSLKPEDTAVYYCAAVGYYSTVRRYDYWGQRTQVTVSS | low polyreactivity
QVHLVESGGGLVQEGGSLRLSCAASGIIFLWYTMGWYRQAPGKERELVATISWGGGSTYADSVNGRFTISRDNAKNTVYIQMYILQPEDTAVYYCAADNRDFRGQGYDYWGQGTQVTVSS | low polyreactivity
QVHLVESGGGLVQEGGSLRLSCPACGSTIRGNAMGWYRQAPGKERELVADITRNGGRTYYADSVKGRFTISRDNAKNNVYLQMNSLKPEDTAVYYCAKRDAYCVTQRNMDYWGQGTQVTVSS | high polyreactivity
QVHLVESGGVLVQAGGSLRLSCAASGSTFLYYAMGRYRQAPGKEREFVASISGSGGSTNYADSVKGRFTISRDNAKNTVSLQMNSLKPEDTAVYYCAKEYVTEFQGYYDWGQGSQVTVSS | low polyreactivity
QVHLVESGGVLVQAGGSLSLSCAASGRTFIRNAMGWYRQAPGKERELVAAINSGGITNYADSVKGRFTISRDNAKNTVYLQMNSLKPEDTAVYYCNARQVLYGLYLRAYPYEYWGQGTQVTVSS | low polyreactivity
QVHLVESGVGLVQAGGSLRLSCAAYGSTCGWYAMGWYRQAPGKERELVASITWDGGRTYYADSVKGRFTISRDNAKNTVYLQMISQKPEDTAVYYCAARGVSSPLNYWGQGNQVTVSS | low polyreactivity
